# Laboratory results taken from the nanobody polyreactivity screen of Harvey et al. (2022).
# Assay: yeast display, Sf9 membrane polyspecificity reagent, FACS + sequencing; frameworks hold sequencing errors
# In short: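 Galactose induction of a Saccharomyces cerevisiae BJ5465 synthetic nanobody display library ran 36–48 hours. The cells were then stained for 1 hour at 4 °C with 10% biotinylated, detergent-solubilized Sf9 membrane reagent, pulled down on streptavidin microbeads and FACS-sorted into low and high (top ~1%) gates on expression and reagent-binding fluorescence. Labels for polyreactivity follow the gate of origin.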
row,Sequence,polyreactivity (PSR sort gate)
1,QVQLVESGGGLVQAGGSLRLSCAASGIIFTQNGMGVYRPAPGKERELVAAISWSAGGTYYADSVKGRFTISRDNAKNTVYLQMNSLIPEDTAVYYCNARVYNVFREFNSWGQGTQVTVSS,low polyreactivity
2,QVQLEESGGGLVQAGGSLRLSCAASGSTFPYYAMGWYRQAPGKERELVAVITSSGSRTYYADSVKGRFTISRDNAKNTVYLQMNSLKPEDTAVYYCARDTRYYRPNRSQYDYWGQGTQVTVSS,high polyreactivity
3,QVQLVESGGGLVQAGGSLRLSCAASGSILFTNAMGWYRQAPGKERELVAAISSGGSTYFADSVKGRFTISRDNAKNTVYLQMNSLKQEDTAVYYCAADQLNVGREYVEYDYWGQGTQVTVSS,low polyreactivity
4,QVQLVESGGGLVQAGGSLRLSCAASGNIFGWYAMGWYRQAPGKERELVAAISSGGRTNYADSVKGRFTISRDNAKNTVYLQMNSLKPEETAVYYCAVGLHKRPPPPRFRQFNYWGQGTQVTVSS,low polyreactivity
5,QVQLVESGGGLVQAGGSLRLSCAASGFTFAANTMGWYRQAPGKERELVADISGRGDRTSYADSVKGRFTISRDNAKNTVYLQMNSLKPEDTAVYYCAVDIYYYSNVHYYYWGQGTQVTVSS,low polyreactivity
6,QVQHVESGGGLVQAGGSRRLSCAASGSTFYGYAMGWYRQAPGKEREFVAAITTSGGSTYYADSVKGRFTISRDNANNTVYLQMNSLKPEDTAVYYCAADGFYYDDGYWGQGTQVTVSS,low polyreactivity
7,QVQLVESGGGLVQAGGSLRLSCAASGRNIYTNAMGWYRQAPGKERELVAAINRSGGITYYADSVKGRFTISRDNAKNTVDLQMNSLKPEDTAVYYCAKDYSWASYNHDYWGQGTQVTVSS,low polyreactivity
8,QVQLVESGGGVVQAGGSLRLSCAASGRTSGSYAMGWYRQAPGNERELVAVITTSDGSTYYADSVKGRFTISRDNAKNTVYLQMNSLKPEDTAVYYCNVDYPNLWYDSYYYWGQGTQVTVSS,low polyreactivity
9,QVQLVESGGGLVQAGGSLRLSCAASGSTFNRYAMGWYRQAPGKERELVAAISSRGGRTYYADSVKGRFTISRDNAKNTVYLQMNSLKPEDTAVYYCAADSSIDYDWGQGTQVTVSS,high polyreactivity
10,QVQLVESGGGLVQAGGSLRLSCAASGLTFRGYAMGWYRQAPGKERELVAAITSSAGRTYYADSVKGRFTISRDNAKNTVYLQLNSLKQEDTAVYYCAAAHSYTTRWGYYKFNYWGQGTKVTVSS,high polyreactivity
11,QVQLVESGGGLVQAGGSLRLSCAASGFIFRYYAMGWYRQAPGKERELVAAISWSGGTTYYADSVKGRFTISRDNAKNTVYLQMNSLKPEDTAVYYCAARVARISVPYDYWGQGTEVTVSS,low polyreactivity
12,QVQLVESGGGLVQAGGSLRLSCAASGRIFISNAMGWYRQAPGKERELVAAISWRGTRTYYADSVKGRFTISRENAKNTVYLEMNSLKPEVTAVYYCNADRHRSRGMDYWGQGTQVTVSS,high polyreactivity
13,QVQLVESGGGLVQAGGSLRLSCAASGRIFAYYAMGWYRQAPGKERELVAAISRSGVSTYYADSVKGRFTISRDNAKNTVYLQMNSLKPEDTAVYYCDARWRSGFTSVDYWGQGTQVTVSS,low polyreactivity
14,QVQLVESGGCLVQAGGSLRLSCAASGLTFGSNAMGWYRQAPGKERELVAAISSTGSTYYADSVKGRFTISRDNAKNTVYLQMNSLKPEDTAVYYCAAYDYWGQGTQVTVSS,low polyreactivity
15,QVQLVESGGGLVQAGGSLRLSCAASGIIFAYYAMGWYRQAPGKERELVASISSGGTTKYADSVKGRFTISRDNAKNTVYLQMNSLKPEDTAVYYCAAEHRWRSWDMDYWGQGTQVTVSS,low polyreactivity
16,QVQLVESGGGLVQAGGSLRLSCAASGRTFVYNAMGWYRQAPGKERELVAAISSGGGTNYADSVKGRFTISRDNAKNTVYLQMNSLKPEDTAVYYCAAGFDGSRHPGFDSWVQGTQVTVSS,low polyreactivity
17,QVQLVESGVGLVQAGRSLSLICAASGSTFFLYGMGWYIQAPGKERDLVAAITWNGGSTYYADSVKGRFTISRDNAKNTVYLQMKSLKPEDTAVYYCAADYYGFFSTPYDYWGQGTQVSVSS,low polyreactivity
18,QVQLVESGGGLVQAGGSLRLSCAASGRISNKYAMGSYRQAPGKERELVAAISYSGGTTYYADSVKGRFTISRDNAKNTVYLQMNSLKPEDTAVYYCARVWSKGYGYYWGYYWGQGSQVTVSS,low polyreactivity
19,QEQLQESGGGQVQAGGSLLLSCAASGNIIRYYYMGWSRQAPGKERELVAAITYGTSTNYADSVKGRFTISRDNAKNTVYLQMNSLKPEDTAVYYCAVDVNYGDPLDNWGQGTQVTVSS,high polyreactivity
20,QVQLVESGGGLVQAGGSLRLSCAASGITFDSYAMGWYRQAPGKEREFVAAISRSGGSTYYADSVKGRFTISRDNAKNTVYLQMNSLKPEDTAVYYCAVSLGRGSSWKLGYWGQGTQVTVSS,high polyreactivity
21,QVQLVESGGGLVQAGGSLRLSCAASGSIFRVYAMGWYRQAPGKERELVASISRRGGSTYYADSVKGRFTISRDNAKKTVYLQMNSLKPEETAVYYFAAEFVIGGHGYDYWGQGTQVTVSS,high polyreactivity
22,QVQLVESGGGLVQAGGSLRLSCAASGSTFSLYAMGWYRQAPGKERELVAAISKRGDDTYYADSVKGRFTISRDNAKNTVYLQMNSLKPEDTAVYYCAAEYAAYEYRYWWYDYWGQGTQVTVSS,high polyreactivity
23,QVQLVESGGGLVQAGCSLRLSCDASGSIFPGNAMGWYRQAPGKEREFVAAISWSGGSTNYADSVKGRFTISRDNAKNTVYLQMNSLKPEDTAVYFCAKRFVRRDPTTQLYGKAYEYWGQGTQVTVSS,high polyreactivity
24,QVQLVESGGGLVQAGGSLRLSCAASGIIFRSYAMGWYRQAPGKERELVAGISRRGGSTYYADSVKGRFTISRDNAKNTVYLQMNSLKPEDTAVYYCAKEVAYKPTGYDYWGQGTQVTVSS,high polyreactivity
25,QVQLVESGGGLVQAGGRLRLSCAASGFTCGVYDMGWYRQAPGKERALVADIDFTGGDTYYADSVKGRFTISRDNAKNTVYLQMIRLKPEDTAVYYCAARSWGVIYDYFYLGLDYWGQGTQVTVSS,low polyreactivity
26,QVQLVESGGGIVQAGGSLRLSCAASGRIFPHNAMGWDRQAPGKERELVAAITKSGDDTYYADSVKGRFTISRDNAKNTVYLQMNSLKPEDTAVYYCAAYLSWYDYWGQGTQVTVSS,low polyreactivity
27,QLQLVESGGGLVQAGGSLRLSCAASGSTFNYNAMGWYRQAPGKEREFVAAISRSGGSTSYADSVKGRFTISRDNAKNTVYLQMNSLKPEDTAVYYCAAYYRKTGYDYWGQGTQVTVSS,high polyreactivity
28,EEELVESGGGLVQAGGSLRLSCAASGIIFGYYAMGWYRQAPGKERELVAAITRSGSSTYYADSVKGRFTISRDNAKNTVYLQMNSLKPEDTAVVSCAADNFYQAYGYWGQGTQVTVSS,low polyreactivity
29,QVQLVESGGGLVQAGGSLRLSCAASGRIFNEYGMGWYRQAPGKERELVAAITDGTTTYYADSVKGRFTISRDNAKNTVYLQMNSLKPEDTAVYYCAASSTWYGYYIFVFRAYDYWGQGTQVTVSS,low polyreactivity
30,QVQLVESGGGLVQAGGSLRLSCAASGSTFNRYAMGWYRQAPGKERELVAAISGSGSSTYYADSVKGRFTISRDNAKNTVYLQMNSLKPEDTAVYYCAAVRYEYDYWGQGTQVTVSS,high polyreactivity
